Laboratory results from patent US9555076B2, “Neuregulin based methods and compositions for treating cardiovascular diseases” (Zensun (Shanghai) Science & Technology, Co., Ltd., priority 2002, dated 2017).
Several values for one entry are separate records, joined by “and”; a condition that tells them apart may be missing. Equal values may be shown once.

Experiments:
[1] = system: heart failure in rat caused by ligation of coronary artery; experiment: Plasma renin-angiotensin-aldosterone radioimmunoassay; format: in vivo, SD rat
Procedure: Carotid artery phlebotomy was carried out and plasma extracted according to the mandate of the reagent kit, frozen and stored at −20° C. Renin activity (PRA), angiotensin I (AI), angiotensin II (AII) and aldosterone (ALD) content were determined with immunoassay.

[2] = system: acute myocardial injury caused by viral (Coxsackie B3) infection in mice; experiment: Echocardiography heart function, mice infected with Coxsackie B3 virus; format: in vivo, BALB/C mice
Procedure: Drug administration of both the testing drug group and the model group was intravenous injection into the tail vein of mice, once every day (qd), for consecutive 5 days, volume of each of the drug administered was 0.2 ml/animal.
0.2 ml of 100×TCID50 CVB3 provided by Zhong Shan Hospital affiliated to Fudan University was injected intra-abdominally and established myocarditis model. Within the following week, the mouse manifested pilo-erection, depilation, emaciation, dullness and death, about half of the tested animals died at the 8th day.
Intravenous injection of the testing drug into the tail vein was carried out the same day of intra-abdominal viral infection in mice, the injection was performed for consecutive 5 days, animal survival rate was monitored, after completion of the experiment, echocardiograph, myocardial pathologic examination, serum troponin determination were carried out.
Chest depilating was performed at the 7th day of viral injection, then the mouse was fixed on special made fixed mount and echocardiograph was carried out with S12 high-frequency probe, the main index included: • EF: ejection fraction of left ventricle, being major index reflecting ejection function of left ventricle; • FS: shortening fraction of left ventricle, index reflecting contraction function of left ventricle; • LVDd: diastolic maximal inner diameter (cm); • LVDs: systolic minimal inner diameter (cm). 7.3.3.2 Determination of Serum Troponin I (cTnI) in Mice
• Normal mice control group, model group and testing drug group were set up; • Normal mice control group (n=10); • Model group (n=20): Prepared buffer solution was injected; • Testing drug group (n=20): 30 μg/kg of rhNRG-1 β was administered for 3, 5 and 7 consecutive days as three difference therapeutic courses with 20 animals assigned for each group; • Placebo control group (n=20): Intra-abdominal injection of non-CVB3 freeze-thaw cellular supernatant, 0.2 ml/animal. 10.2 Dosage Set Up, Preparation of Testing Drug, Route of Drug Administration, Times of Drug Administration, Concentration and Volume of the Testing Drug • rhNRG-1β was diluted with preparation buffer solution (10 mM PB, 0.2% human serum albumin, 5% mannitol to needed concentration; • Three drug administration groups were set up, intravenous injection for consecutive 3-day, 5-day and 7-day, drug volume for each dose was 0.2 ml/animal; • Drug administration of the model group was intravenous injection into the tail vein of mice, once every day (qd), for consecutive 7 days, drug volume for each dose was 0.2 ml/animal. 7.3 Method of the Experiment 7.3.1 Set Up of Acute Viral Myocariditis Animal Model in Mice

[3] = dose not given (n = 6), iv qd × 10
[4] = 7.5 μg/kg iv qd × 5, 7th day, (I)
[5] = 7.5 μg/kg iv qd × 5, 7th day, (II)
[6] = 15 μg/kg iv qd × 5, 7th day, (I)
[7] = 15 μg/kg iv qd × 5, 7th day, (I), listed as rhNRG-1β
[8] = 15 μg/kg iv qd × 5, 7th day, (II)
[9] = 30 μg/kg iv qd × 3, 7th day, (I)
[10] = 30 μg/kg iv qd × 3, 7th day, (I), listed as rhNRG-1β
[11] = 30 μg/kg iv qd × 3, 7th day, (II)
[12] = 30 μg/kg iv qd × 5, 7th day, (I)
[13] = 30 μg/kg iv qd × 5, 7th day, (I), listed as hNRG-1β
[14] = 30 μg/kg iv qd × 5, 7th day, (II)
[15] = 30 μg/kg iv qd × 5, 7th day, Example 5 (I)
[16] = 30 μg/kg iv qd × 5, 7th day, Example 5 (I), listed as rhNRG-1β
[17] = 30 μg/kg iv qd × 5, 7th day, Example 5 (II)
[18] = 30 μg/kg iv qd × 7, 7th day, (I)
[19] = 30 μg/kg iv qd × 7, 7th day, (I), listed as rhNRG-1β
[20] = 30 μg/kg iv qd × 7, 7th day, (II)

B1: rhNRG-1 β: Recombinant human neuregulin fragment of 61 amino acid (SEQ ID NO:4), 3 disulfide bonds, expressed in E. coli (protein, listed as Homo sapiens)
chain: SHLVKCAEKEKTFCVNGGECFMVKDLSNPSRYLCKCPNEFTGDRCQNYVMASFYKAEELYQ
modifications: disulfide (positions not given here)
- AI ([1]; 5 μg/kg iv qd × 10): 10.036 ng/mL
- AII ([1]; 5 μg/kg iv qd × 10): 807.304 pg/mL
- ALD ([1]; 5 μg/kg iv qd × 10): 1.472 ng/mL
- PRA ([1]; 5 μg/kg iv qd × 10): 4.032 ng/ml · h
- AI ([1]; 10 μg/kg iv qd × 10): 7.65 ± 1.40 ng/mL and 7.654 ng/mL
- AII ([1]; 10 μg/kg iv qd × 10): 468.58 ± 165.10 pg/mL and 468.583 pg/mL
- ALD ([1]; 10 μg/kg iv qd × 10): 1.26 ± 0.38 ng/mL and 1.264 ng/mL
- PRA ([1]; 10 μg/kg iv qd × 10): 1.075±1.50 ng/ml · h and 1.075 ng/ml · h
- AI ([1]; 20 μg/kg iv qd × 10): 7.40 ± 12.15 ng/mL and 7.400 ng/mL
- AII ([1]; 20 μg/kg iv qd × 10): 641.47 ± 283.86 pg/mL and 641.47 pg/mL
- ALD ([1]; 20 μg/kg iv qd × 10): 1.02 ± 0.27 ng/mL and 1.018 ng/mL
- PRA ([1]; 20 μg/kg iv qd × 10): 1.337±1.09 ng/ml · h and 1.337 ng/ml · h
- AI [1, 3]: 10.655 ng/mL
- AII [1, 3]: 1366.38 pg/mL
- ALD [1, 3]: 1.738 ng/mL
- PRA [1, 3]: 3.506 ng/ml · h
- EF [2, 4]: 78.1 ± 9.3%
- FS [2, 4]: 41.7 ± 9.6%
- LVDd [2, 4]: 0.191 ± 0.012 cm
- LVDs [2, 4]: 0.114 ± 0.028 cm
- EF [2, 5]: 71.9 ± 6.69%
- FS [2, 5]: 35.7 ± 5.60%
- LVDd [2, 5]: 0.213 ± 0.009 cm
- LVDs [2, 5]: 0.133 ± 0.015 cm
- EF [2, 6]: 86.0±2.9%
- FS [2, 6]: 50.7±4.3%
- LVDd [2, 6]: 0.189±0.008 cm
- LVDs [2, 6]: 0.099±0.027 cm
- EF [2, 7]: 81.3 ± 6.28 %
- FS [2, 7]: 44.5 ± 8.27 %
- LVDd [2, 7]: 0.189 ± 0.008 cm
- LVDs [2, 7]: 0.099 ± 0.027 cm
- EF [2, 8]: 81.6 ± 4.59 %
- FS [2, 8]: 44.9 ± 5.68 %
- LVDd [2, 8]: 0.201 ± 0.011 cm
- LVDs [2, 8]: 0.114 ± 0.018 cm
- EF [2, 9]: 73.1±6.6%
- FS [2, 9]: 36.7 ± 4.7%
- LVDd [2, 9]: 0.194 ± 0.008 cm
- LVDs [2, 9]: 0.123±0.012 cm
- EF [2, 10]: 73.1 ± 6.6%
- LVDs [2, 10]: 0.123 ± 0.012 cm
- EF [2, 11]: 81.0 ± 5.4%
- FS [2, 11]: 43.9 ± 5.1%
- LVDd [2, 11]: 0.211 ± 0.016 cm
- LVDs [2, 11]: 0.121 ± 0.016 cm
- EF [2, 12]: 90.2±2.5%
- FS [2, 12]: 55.7±2.1%
- LVDd [2, 12]: 0.187±0.006 cm
- LVDs [2, 12]: 0.085±0.009 cm
- EF [2, 13]: 90.2 ± 2.5 %
- FS [2, 13]: 55.7 ± 2.1 %
- LVDd [2, 13]: 0.187 ± 0.006 cm
- LVDs [2, 13]: 0.085 ± 0.009 cm
- EF [2, 14]: 87.7 ± 3.76 %
- FS [2, 14]: 51.8 ± 5.24 %
- LVDd [2, 14]: 0.196 ± 0.011 cm
- LVDs [2, 14]: 0.094 ± 0.011 cm
- EF [2, 15]: 86.8±4.4%
- FS [2, 15]: 51.9±5.8%
- LVDd [2, 15]: 0.187 ± 0.006 cm
- LVDs [2, 15]: 0.090±0.011 cm
- EF [2, 16]: 86.8 ± 4.4%
- FS [2, 16]: 51.9 ± 5.8%
- LVDs [2, 16]: 0.090 ± 0.011 cm
- EF [2, 17]: 85.8 ± 4.205%
- FS [2, 17]: 50.0 ± 6.350%
- LVDd [2, 17]: 0.199 ± 0.000 cm
- LVDs [2, 17]: 0.100 ± 0.014 cm
- EF [2, 18]: 87.0±3.3%
- FS [2, 18]: 51.8±5.1%
- LVDd [2, 18]: 0.192 ± 0.008 cm
- LVDs [2, 18]: 0.092±0.012 cm
- EF [2, 19]: 87.0 ± 3.3%
- FS [2, 19]: 51.8 ± 5.1%
- LVDs [2, 19]: 0.092 ± 0.012 cm
- EF [2, 20]: 87.283 ± 1.694%
- FS [2, 20]: 52.367 ± 1.847%
- LVDd [2, 20]: 0.194 ± 0.017 cm
- LVDs [2, 20]: 0.092 ± 0.008 cm
